For 35 molecules, IC50 results are on record in patent US20120321591A1 (COVX TECHNOLOGIES IRELAND, published 2012).

Bridges are numbered along the chain shown (N, C = ends). [ ]: non-standard residue; d: D form. Nle = CCCC[C@H](N)C(=O)O

The target of the assay is T1, recombinant human VEGF165 (human, UniProt P15692-4 27-191).
T1 construct: also called rhVEGF165
The assay can be described thus: competition ELISA: VEGF165 binding to coated VEGFR2/Fc. For orientation: ELISA stands for enzyme-linked immunosorbent assay.

T1 sequence (P15692 other isoform, or with tags, fused parts or gaps limits assumed): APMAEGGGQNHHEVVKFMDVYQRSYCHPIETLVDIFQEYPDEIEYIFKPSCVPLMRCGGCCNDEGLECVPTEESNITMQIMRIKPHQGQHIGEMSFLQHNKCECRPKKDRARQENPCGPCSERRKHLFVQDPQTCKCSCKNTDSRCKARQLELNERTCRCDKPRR

B1: [VEGF-Peptide] SEQ ID NO:64 (peptide)
peptide: Ac-VEPNCDIHVMWVWECFERL-NH2
modifications: disulfide 5-15 (inferred)
Consider B1, for which the IC50 stood at 24 nM.

B2: [VEGF-Peptide] SEQ ID NO:40 (peptide)
peptide: Ac-VEPNCDIHVMWVWECFERLYGIF-NH2
modifications: disulfide 5-15 (inferred)
B2: the IC50 worked out at 78.3 nM.

B3: [VEGF-Peptide] SEQ ID NO:75 (peptide)
peptide: Ac-VEPNCDIHVMWVWECFERLYGLE-NH2
modifications: disulfide 5-15 (inferred)
In the case of B3, the half-inhibitory concentration (IC50) turned out to be 3 nM.

B4: [VEGF-Peptide] SEQ ID NO:50 (peptide)
peptide: Ac-VEPNCDIHVMWVWECFERLYGIL-NH2
modifications: disulfide 5-15 (inferred)
On to B4, for which the concentration for half-maximal inhibition (IC50) is 34.4 nM.

B5: [VEGF-Peptide] SEQ ID NO:43 (peptide)
peptide: Ac-VEPNCDIHVMWVWVCFERLYGGG-NH2
modifications: disulfide 5-15 (inferred)
For the molecule B5, the IC50 came to 66 nM.

B6: [VEGF-Peptide] SEQ ID NO:44 (peptide)
peptide: Ac-VEPNCDIHVMWVWECFERLYGLY-NH2
modifications: disulfide 5-15 (inferred)
In the case of B6, the IC50 amounted to 54.6 nM.

B7: [VEGF-Peptide] SEQ ID NO:77 (peptide)
peptide: Ac-VEPNCDIHVMWVWECFERLYGPF-NH2
modifications: disulfide 5-15 (inferred)
As for B7, the IC50 came out at 1.8 nM.

B8: [VEGF-Peptide] SEQ ID NO:71 (peptide)
peptide: Ac-VEPNCDIHVMWVWECFERLYGLS-NH2
modifications: disulfide 5-15 (inferred)
In the case of B8, the IC50 is 5.4 nM.

B9: [VEGF-Peptide] SEQ ID NO:53 (peptide)
peptide: Ac-VEPNCDIHVMWVWECFERLFKEA-NH2
modifications: disulfide 5-15 (inferred)
Turning to B9, the IC50 turned out to be 31.4 nM.

B10: [VEGF-Peptide] SEQ ID NO:74 (peptide)
peptide: Ac-VEPNCDIHVMWVWECFERLYGVQ-NH2
modifications: disulfide 5-15 (inferred)
For the molecule B10, the IC50 came to 4 nM.

B11: [VEGF-Peptide] SEQ ID NO:70 (peptide)
peptide: Ac-VEPNCDIHVMWVWECFERLYGEF-NH2
modifications: disulfide 5-15 (inferred)
With B11, the IC50 was 9.3 nM.

B12: [VEGF-Peptide] SEQ ID NO:63 (peptide)
peptide: Ac-VEPNCDIHVMWVWECFERLMREL-NH2
modifications: disulfide 5-15 (inferred)
With B12, the IC50 worked out at 24 nM.

B13: [VEGF-Peptide] SEQ ID NO:66 (peptide)
peptide: Ac-VEPNCDIHVMWVWECFERLYGPW-NH2
modifications: disulfide 5-15 (inferred)
For the molecule B13, the IC50 turned out to be 18.7 nM.

B14: [VEGF-Peptide] SEQ ID NO:59 (peptide)
peptide: Ac-VEPNCDIHVMWVWECFERLMGLT-NH2
modifications: disulfide 5-15 (inferred)
Take B14: the IC50 was 25 nM.

B15: [VEGF-Peptide] SEQ ID NO:42 (peptide)
peptide: Ac-VEPNCDIHVMWVWECFERLYGWG-NH2
modifications: disulfide 5-15 (inferred)
Regarding B15, the IC50 turned out to be 68.2 nM.

B16: [VEGF-Peptide] SEQ ID NO:56 (peptide)
peptide: Ac-VEPNCDIHVMWVWECFERLYGGF-NH2
modifications: disulfide 5-15 (inferred)
For B16, the IC50 came to 26.2 nM.

B17: [VEGF-Peptide] SEQ ID NO:76 (peptide)
peptide: Ac-VEPNCDIHVMWVWECFERLYGPL-NH2
modifications: disulfide 5-15 (inferred)
In the case of B17, the IC50 is 2.3 nM.

B18: [VEGF-Peptide] SEQ ID NO:46 (peptide)
peptide: Ac-VEPNCDIHVMWVWECFERLMRLT-NH2
modifications: disulfide 5-15 (inferred)
In the case of B18, the IC50 was 44.1 nM.

B19: [VEGF-Peptide] SEQ ID NO:45 (peptide)
peptide: Ac-VEPNCDIHVMWVWECFERLSGGG-NH2
modifications: disulfide 5-15 (inferred)
Regarding B19, the IC50 was 51 nM.

B20: [VEGF-Peptide] SEQ ID NO:61 (peptide)
peptide: Ac-VEPNCDIHVMWVWECFERLYGGG-NH2
modifications: disulfide 5-15 (inferred)
Consider B20, for which the IC50 worked out at 23.6 nM.

B21: [VEGF-Peptide] SEQ ID NO:65 (peptide)
peptide: Ac-VEPNCDIHVMWVWECFERLMKEL-NH2
modifications: disulfide 5-15 (inferred)
For B21, the half-inhibitory concentration (IC50) amounted to 18 nM.

B22: [VEGF-Peptide] SEQ ID NO:52 (peptide)
peptide: Ac-VEPNCDIHVMWVWECFERLYGG-NH2
modifications: disulfide 5-15 (inferred)
On to B22, for which the IC50 was 32.3 nM.

B23: [VEGF-Peptide] SEQ ID NO:72 (peptide)
peptide: Ac-VEPNCDIHVMWVWECFERLYGL-NH2
modifications: disulfide 5-15 (inferred)
Consider B23, for which the IC50 was 4.8 nM.

B24: [VEGF-Peptide] SEQ ID NO:68 (peptide)
peptide: Ac-VEPNCDIHVMWVWECFERLLK(Ac)-NH2
modifications: disulfide 5-15
For B24, the IC50 turned out to be 10 nM.

B25: [VEGF-Peptide] SEQ ID NO:62 (peptide)
peptide: Ac-VEPNCDIHVMWVWECFERLMK-NH2
modifications: disulfide 5-15 (inferred)
For B25, the IC50 is 25 nM.

B26: [VEGF-Peptide] SEQ ID NO:67 (peptide)
peptide: Ac-VEPNCDIHVMWVWECFERLLK-NH2
modifications: disulfide 5-15 (inferred)
On to B26, for which the IC50 stood at 10.1 nM.

B27: [VEGF-Peptide] SEQ ID NO:57 (peptide)
peptide: Ac-VEPNCDIHVMWVWECFERLIK-NH2
modifications: disulfide 5-15 (inferred)
As to B27, the IC50 amounted to 25.4 nM.

B28: [VEGF-Peptide] SEQ ID NO:49 (peptide)
peptide: Ac-VEPNCDIHVMWVWECFERLMR-NH2
modifications: disulfide 5-15 (inferred)
Consider B28, for which the IC50 worked out at 34.5 nM.

B29: [VEGF-Peptide] SEQ ID NO:48 (peptide)
peptide: Ac-VEPNCDIHVMWVWECFERLVK-NH2
modifications: disulfide 5-15 (inferred)
Regarding B29, the IC50 was determined as 42.4 nM.

B30: [VEGF-Peptide] SEQ ID NO:38 (peptide)
peptide: Ac-VEPNCDIHVMWVWVCFERLMK-NH2
modifications: disulfide 5-15 (inferred)
In the case of B30, the IC50 turned out to be 92.6 nM.

B31: [VEGF-Peptide] SEQ ID NO:47 (peptide)
peptide: Ac-VEPNCDIHVMWVWECFERLYG-NH2
modifications: disulfide 5-15 (inferred)
B31: the IC50 came out at 43.3 nM.

B32: [VEGF-Peptide] SEQ ID NO:58 (peptide)
peptide: Ac-VEPNCDIHVMWVWECFERLYK-NH2
modifications: disulfide 5-15 (inferred)
With B32, the IC50 was 25.1 nM.

B33: [VEGF-Peptide] SEQ ID NO:54 (peptide)
peptide: Ac-VEPNCDIHVMWVWECFERL[Nle]K-NH2
modifications: disulfide 5-15
As to B33, the IC50 worked out at 28.6 nM.

B34: [VEGF-Peptide] SEQ ID NO:41 (peptide)
peptide: Ac-VEPNCDIHVMWVWECFERLY-NH2
modifications: disulfide 5-15 (inferred)
Regarding B34, the IC50 was 69.9 nM.

B35: [VEGF-Peptide] SEQ ID NO:60 (peptide)
peptide: Ac-VEPNCDIHVMWVWECFERL[dL]K(Ac)-NH2
modifications: disulfide 5-15
B35: the IC50 turned out to be 25 nM.

The IC50 is the concentration that inhibits the measured activity by half.
